According to publication PMC11892807:

How the values were obtained:
[1] = target: CA(A14C/E45C/W184A/M185A) (HIV-1); assay: mass photometry; no ligand added; 2 uL of sample into 18 uL buffer, 60 s at 331 Hz; unliganded WT CA and pre-formed cross-linked pentamers and hexamers as controls
[2] = target: CA(A14C/E45C/W184A/M185A) (HIV-1); assay: cross-linking; as the DMSO reaction, but 2 uM LEN pre-incubated with monomeric CA (1 uM) before concentration to 125 uM and sequential dialysis out of beta-mercaptoethanol; products on SDS-PAGE
[3] = target: CA(A14C/E45C/W184A/M185A) (HIV-1); assay: cross-linking; disulfide cross-linking of monomeric CA with DMSO, by sequential dialysis out of beta-mercaptoethanol at 4 C (final 20 mM Tris-HCl pH 8, 40 mM NaCl, no reducing agent); products on SDS-PAGE; legend: 1 uM CA, methods: diluted to 1 uM, then concentrated to 125 uM
[4] = target: CA(N21C/A22C/W184A/M185A) (HIV-1); assay: mass photometry; no ligand added; 2 uL of sample into 18 uL buffer, 60 s at 331 Hz; unliganded WT CA and pre-formed cross-linked pentamers and hexamers as controls
[5] = target: CA(N21C/A22C/W184A/M185A) (HIV-1); assay: cross-linking; disulfide cross-linking of monomeric CA with DMSO, by sequential dialysis out of beta-mercaptoethanol at 4 C (final 20 mM Tris-HCl pH 8, 40 mM NaCl, no reducing agent); products on SDS-PAGE; legend: 1 uM CA, methods: diluted to 1 uM, then concentrated to 125 uM

With “CA(A14C/E45C/W184A/M185A) (natural protein)” the stoichiometry N [1] was 6, the stoichiometry N [2] was 6 and the stoichiometry N [3] was 6.

“CA(N21C/A22C/W184A/M185A) (natural protein)” showed a stoichiometry N [4] of 5 and a stoichiometry N [5] of 5.
